Source: the DeepSol protein solubility set

Assay: soluble on expression in E. coli; label from the status in PepcDB or PDB records

| Sequence | soluble on expression in E. coli |
| --- | --- |
| LESLEVMIMLDTLRAINNPLNDYALVALLRSPMFNFNEDDLTRIAVQADKGQFYDKLLAAHTKSGLHPEVVMQGLEAKLTLFTETLADWRDYSKCHSIYDLIWKIYNDRFYYDYVGGLPRAEQRQANLYALALRANAYEKTGFKGLSRFIGMI | not soluble |
| MIIDINRLDRAFDLIKEGVSKGVFPGAVAAVGTRERVIRLESFGNRCLYPEKLSMNKDTLFDLASLTKVVATNTLFMIFLEKGLISVYDNVSYYLEKFKGKNKDDVTIFNLLTHTAGFVPCKPLYKLCKGYEDSIDYICRCGLSYKPGTKCVYSDFSYILLAYILEKIGGDTLDILCDRYIFKPLYMENTTFKPKGNNIAATEIDKKTKKPLIGVCHDENGRFFGGISGHAGLFSDIYDLCKFSNMLVNEGKGIISYASFKAMTTNHTLGLEDNRGYGWCIKGDKNSFMGDIAFPETFGHNGFTGTSLWVDIKNNIYAILLTNRVHPTRDNLRIIRFRRVFSNAVLASLTR | not soluble |
| MQKVRSDIMTHRGSHYDLGVKTALWLQTTPLLKNRNKEWRKRIPRFDIDVKETYDIFQIYSPQIWEEIIGMQDVLNLPTKQMILNFGHYRFTDLKDSGCTVYKGRDFLVRNYDYHPATYDGRYLLFQPNDGGLSQIGPTSRVTGRMDGMNEYGLVMAYNFMHRKKPANGFVCYMVGRLILENCKNVTEAIKFLKEVPHRSSFSYILMDRHSNYAIVEVTPRSIDVRYEHICTNHFELLTHENRNYTRESKERLNRVINKTTPSTNKDIAFKLFNDPQYEIYSNLFKSWSGTIHTSLYEPNSLIAWMALGQNSHPTSINFSNWLKGKKLNINYFEGEIDTPLTFATYLEHHHHHH | not soluble |
| MSLNERAKIKIIPLGGINEIGKNITAIEYKEDIIIIDCGLKFPDDDMFGIDIVIPDVSYLIKNSEKIKGIFLTHGHEDHIGALPYVLRQLNVPVYGTKLTLGIVETKLKEHGLLASTELVRVKPKDIIKLDSVSVEFIKTNHSIADSVAIAVHTPLGVVLHTGDFKIDYTPIDGEMMDFGRLAELGRKGVLVLMADSTNVERPGYTMTEKVVGETFLRLFGKAKGRLIVATFASNVHRIQQIITAAEAYEKKVAVSGRSMENIVQVAIELGYLTVGKDVLVPVDQISKYPNEKIVVITTGSQGEPMSALARMAASEHRKINVIPGDTVIISATPIPGNEKFVSKVINQLFKKGAQVIYDSQEKIHVSGHACQEELKLMQALVKPKFFVPVHGEYRHLKKHGELAMEVGLSEKNLLIPENGDVIEVAREGHHHHHH | soluble |
| MAHHHHHHMTVHLLWIINQSGQLIAKSSFTAPENIGELGAKPDLQLTMSSILFSTYGMSQELTPNANPVDSAGMTLVECEEHNIHIYETPTLVKFVLVSDSRTRECNALFRELHSLYVEYVMKNPFHIVDEGGIGQPIRIAAFTGAVKRAVDRYHAAGVSNATRK | not soluble |
| MTVELCGRWDARDVAGGRYRVINNVWGAETAQCIEVGLETGNFTITRADHDNGNNVAAYPAIYFGCHWGACTSNSGLPRRVQELSDVRTSWTLTPITTGRWNAAYDIWFSPVTNSGNGYSGGAELMIWLNWNGGVMPGGSRVATVELAGATWEVWYADWDWNYIAYRRTTPTTSVSELDLKAFIDDAVARGYIRPEWYLHAVETGFELWEGGAGLRSADFSVTVQKLAAALEIKRASQPELAPEDPEDVEHHHHHH | soluble |
| GRRPRTAFTQNQIEVLENVFRVNCYPGIDILEDLAQKLNLELDRIQIWFQNRRAKLKRSHRESQFLM | soluble |
| MGHHHHHHSHMVSSNFWFKYPKTCSKVEHFVSILGKCFESPWTTKALSETACEDSEENKQRITGAQTLPKHVSTSSDEGSPSASTPMINKTGFKFSAEKPVIEVPSMTILDKKDGEQAKALFEKVRKFRAHVEDSDLIYKLYVVQTASPFPNQ | not soluble |
| MGHHHHHHSHMIMQEIFLCSISNVRSGDCKEDCAYCTQSSHHQGAIKRYKFKDEKVVLQEARALRQLGALGFCLVTSGRELDDEKCEYIAKLAKAINQEELGLHLIACCGRADLEQLEFLRDAGIHSYNHNLETSQNFFPKICSTHTWEERFITCENALRAGLGLCSGGIFGLNESWEDRIEMLRALASLSPHTTPINFFIKNPVLPIDAETLSADEALECVLLAKEFLPNARLMVAGGREVVFKDNDKKEAKLFEYGINAVVLGDYLTTKGKAPKKDIEKLLSYGLTMATSCH | soluble |
| MSGHFNYIVVGRGMMGAAAARHLAETVDGVALIGPGEPADIKSHQGVFASHYDEARITRTIDGDPDWALLANRSIARYADIAARSGVEFYAPVGCLMVGPERGGANPFVDDVLRAAARLGVSTELLGDQSLKSRFPYFSFEPGCEGVFERDNAGYVNPRALVKAQAILAEKAGVTLIDDIVVSTREEDGRASVQTASGAVYTAERVLVAAGGFSITRDLLPQPVGLDVYARTVAFFEIDEGDLGQYAGMPSLIYEPHDTTKHIYLLPPVRYPDGKFYLKIGGDPDDKRVGSDPEIREWFRSGGRESVRDHLSEIVGTLVPSVDHSRVSMAACVVSKTKSGYPAIGFTASPRIAVLTGGNGTAAKSSDEIGRLGAALLRDGKIADDAFSTDFKPEFL | not soluble |
| MPAAAPGKNFDLSHWKLQLPDANTTEISSANLGLGYTSQYFYTDTDGAMTFWAPTTGGTTANSSYPRSELREMLDPSNSKVNWGWQGTHTMKLSGKTVQLPSSGKIIVAQIHGIMDDGTNAPPLVKAVFQDGQLDMQVKQNSDGTGSDVHNYFTGIKLGDLYNMEIRVTDGVAYVTMNGDTRSVDFVGKDAGWKNLKYYFKAGNYVQDNTSTGGSAIAKLYSLSVSHSNLEHHHHHH | soluble |
| MGSDKIHHHHHHAQKKTQKTYIPWSNGKLVVSEEGRYLKHENGTPFFWLGETGWLLPERLNRDEAEYYLEQCKRRGYNVIQVQTLNNVPSMNIYGQYSMTDGYNFKNINQKGVYGYWDHMDYIIRTAAKKGLYIGMVCIWGSPVSHGEMNVDQAKAYGKFLAERYKDEPNIIWFIGGDIRGDVKTAEWEALATSIKAIDKNHLMTFHPRGRTTSATWFNNAPWLDFNMFQSGHRRYGQRFGDGDYPIEENTEEDNWRFVERSMAMKPMKPVIDGEPIYEEIPHGLHDENELLWKDYDVRRYAYWSVFAGSFGHTYGHNSIMQFIKPGVGGAYGAKKPWYDALNDPGYNQMKYLKNLMLTFPFFERVPDQSVIAGQNGERYDRAIATRGNDYLMVYNYTGRPMEVDFSKISGAKKNAWWYTTKDGKLEYIGEFDNGVHKFQHDSGYSSGNDHVLIVVDSSKDYVKKDCYQIDTHE | not soluble |
| MGSDKIHHHHHHMSKMLTLAVRAHDVGTKISPVELAKKIAETNITSIQFALGISYPEYASAAVLSPGLGSQLKNIFEDEKITISVLSCYINLIHPDLEEREKRLHQFETYIRYDSMFGAKIVATETGSIYETIYYTEDNYTEEAYEEVLFSVRRLCREAEKYGIIVGIEPGINHPIHTIEKMQRLIDEVASTNLGIILDPTNLIRVDIDKTYLEIVEEAFECFGEKIVAFHLKDFIIRNQQIFPVAIGEGQVPLTETIQFLNKHKPGLFTIFEETPFEKIASAYQKVSQYHSI | not soluble |
| RSFAKDLEAKQKMSLTSWFLVSSGGTRHRLPREMIFVGRDDCELMLQSRSVDKQHAVINYDASTDEHLVKDLGSLNGTFVNDVRIPEQTYITLKLEDKLRFGYDTNLFTVVQGEMRVPEEALKHEKFTIQLQLSQKSSESELSKSASAKSIDSKVADAATEVQHKTTEALKSEEKAMDISAMPRGTPLYGQPSWWGDDEVDEKRAFKTNGKPEEKNHEAGTSGCSIDAKQVEEQSAAANEEVLFPFCREPSYFEIPTKEFQQPSQITESTIHEIPTKDTPSSHITGAGHASFTIEFDDSTPGKVTIRDHVTKFTSDQRHKSKKSSPGTQDLLGIQTGMMAPENKVADWLAQNNPPQMLWERTEEDSKSIKSDVPVYLKRLKGNKHDDGTQSDSENAGAHRRCSKRATLEEHLRRHHSEHKKLQKVQATEKHQDQAVVFGVDDNQDYNRPVINEKHKDLIKDWALSSAAAVMEERKPLTTSGFHHSEEGTSSSGSKRWVSQWASLAANHTRHDQEERIMEFSAPLPLENETEISESGMTVRSTGSATSLASQGERRRRTLPQLPNEEKSLESHRAKVVTQRSEIGEKQDTELQEKETPTQVYQKDKQDADRPLSKMNRAVNGETLKTGGDNKTLLHLGSSAPGKEKSETDKETSLVKQTLAKLQQQEQREEAQWTPTKLSSKNVSGQTDKCREETFKQESQPPEKNSGHSTSKGDRVAQSESKRRKAEEILKSQTPKGGDKKESSKSLVRQGSFTIEKPSPNIPIELIPHINKQTSSTPSSLALTSASRIRERSESLDPDSSMDTTLILKDTEAVMAFLEAKLREDNKTDEGPDTPSYNRDNSISPESDVDTASTISLVTGETERKSTQKRKSFTSLYKDRCSTGSPSKDVTKSSSSGAREKMEKKTKSRSTDVGSRADGRKFVQSSGRIRQPSVDLTDDDQTSSVPHSAISDIMSSDQETYSCKPHGRTPLTSADEHVHSKLEGSKVTKSKTSPVVSGSSSKSTTLPRPRPTRTSLLRRARLGEASDSELADADKASVASEVSTTSSTSKPPTGRRNISRIDLLAQPRRTRLGSLSARSDSEATISRSSASSRTAEAIIRSGARLVPSDKFSPRIRANSISRLSDSKVKSMTSAHGSASALKTTRLQSAGSAMPTSSSFKHRIKEQEDYIRDWTAHREEIARISQDLALIAREINDVAGEIDSVTSSGTAPSTTVSTAATTPGSAIDTREEVGDLHGEMHKLVDRVFDESLNFRKIPPLVHSKTPEGNNGRSGDPRPQAAEPPDHLTITRRRTWSRDEVMGDNLLLSSVFQFSKKIRQSIDKTAGKIRILFKDKDRNWDDIESKLRAESEVPIVKTSSMEISSILQELKRVEKQLQAINAMIDPDGTLEALNNMGFPSAMLPSPPKQKSSPVNNHHSPGQTPTLGQPEARALHPAAVSAAAEFENAESEADFSIHFNRFNPDGEEEDVTVQE | soluble |
| MAGIAMKLAKDREAAEGLGSHERAIKYLNQDYETLRNECLEAGALFQDPSFPALPSSLGFKELGPYSSKTRGIEWKRPTEICADPQFIIGGATRTDICQGALGDSWLLAAIASLTLNEEILARVVPLDQSFQENYAGIFHFQFWQYGEWVEVVVDDRLPTKDGELLFVHSAEGSEFWSALLEKAYAKINGCYEALSGGATTEGFEDFTGGIAEWYELRKPPPNLFKIIQKALEKGSLLGCSIDITSAADSEAVTYQKLVKGHAYSVTGAEEVESSGSLQKLIRIRNPWGQVEWTGKWNDNCPSWNTVDPEVRANLTERQEDGEFWMSFSDFLRHYSRLEICNLTPDTLTCDSYKKWKLTKMDGNWRRGSTAGGCRNYPNTFWMNPQYLIKLEEEDEDDEDGERGCTFLVGLIQKHRRRQRKMGEDMHTIGFGIYEVPEELTGQTNIHLSKNFFLTTRARERSDTFINLREVLNRFKLPPGEYVLVPSTFEPHKNGDFCIRVFSEKKADYQTVDDEIEANIEEIEANEEDIGDGFRRLFAQLAGEDAEISAFELQTILRRVLAKREDIKSDGFSIETCKIMVDMLDEDGSGKLGLKEFYILWTKIQKYQKIYREIDVDRSGTMNSYEMRKALEEAGFKLPCQLHQVIVARFADDELIIDFDNFVRCLVRLEILFKIFKQLDPENTGTIQLDLISWLSFSVLGKLAAALEHHHHHH | soluble |
| MGSDKIHHHHHHMTQVPPSASPADLLAVLERIATALERQGAPAVPANSLDGADAFVWHAAESWLEPVCRVNRVDIALLQGIERQRQTLYDNTLRFAHGLPANNALLWGARGTGKSSLVKAVHASVNQALTAKGAAPVALVEIHREDIPTLPRLLRILAASGRPCLLFCDDLSFDGNDSSYKSLKAVLEGGIEGRPDTVIFYATSNRRHLLAREMVENEQSTALHAGEAVEEKVSLSDRFGLWLGFHNVDQPTYFDIVDGYARAYGLDIETEDLHREAREWSMARGSRSGRTAWQFIQDLAGRLGKTLE | not soluble |
